Changes are numbered by the printed parent chain.
What was measured:
[1] = biological target: T1, GraA (antitoxin; His-GraA2) (Pseudomonas putida (PaW85?)) (UniProt Q88MI6); test: ITC; conditions: ITC: 50 mM Tris pH 8.0, 250 mM NaCl, 2 mM β-mercaptoethanol (TCEP in purification for ITC), 25 °C; EMSA: 5 µM DNA, 30 min at room temperature, 6% native PAGE …
T1 sequence: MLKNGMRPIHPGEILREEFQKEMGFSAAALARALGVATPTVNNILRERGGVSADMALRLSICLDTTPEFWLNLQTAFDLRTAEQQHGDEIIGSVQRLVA

[2] = biological target: N-terminally His-tagged antitoxin GraA (Pseudomonas putida); test: native MS; GraA2 (20 μM dimer) mixed with operator DNA duplex at 1:1, 2:1 and 4:1, 40 mM ammonium acetate pH 7, nano-electrospray
[3] = biological target: N-terminally His-tagged antitoxin GraA (Pseudomonas putida); test: crystal structure; crystal of hisGraA2 with the 33 bp graTA operator DNA, 3.8 Å, data at 100 K
[4] = biological target: N-terminally His-tagged antitoxin GraA (Pseudomonas putida); test: crystal structure; crystal of hisGraA2, 1.96 Å, data at 100 K
[5] = biological target: untagged antitoxin GraA co-expressed with His-tagged GraT (Pseudomonas putida); test: crystal structure; crystal of the co-expressed and co-purified hisGraT2A2 complex, 2.2 Å, data at 100 K
[6] = biological target: T2, GraA (antitoxin; His-GraA2) (Pseudomonas putida, UniProt Q88MI6 1-99); test: ITC; macroscopic; ITC: 50 mM Tris pH 8.0, 250 mM NaCl, 2 mM β-mercaptoethanol (TCEP in purification for ITC), 25 °C; EMSA: 5 µM DNA, 30 min at room temperature, 6% native PAGE in TBE on ice; conditions: protein: recombinant; tags: N-terminal His6; chain copies: 4
T2 sequence: T1 sequence

[7] = biological target: T2, GraA (antitoxin; His-GraA2); test: ITC; N.D., binding too weak; ITC: 50 mM Tris pH 8.0, 250 mM NaCl, 2 mM β-mercaptoethanol (TCEP in purification for ITC), 25 °C; EMSA: 5 µM DNA, 30 min at room temperature, 6% native PAGE in TBE on ice; conditions: protein: recombinant; tags: N-terminal His6; chain copies: 4
[8] = biological target: T2, GraA (antitoxin; His-GraA2); test: ITC; macroscopic, 2 dimers per DNA; text also gives 3.1e13; ITC: 50 mM Tris pH 8.0, 250 mM NaCl, 2 mM β-mercaptoethanol (TCEP in purification for ITC), 25 °C; EMSA: 5 µM DNA, 30 min at room temperature, 6% native PAGE in TBE on ice; conditions: protein: recombinant; tags: N-terminal His6; chain copies: 4
[9] = biological target: T3, GraT (toxin) in GraT2A2 complex;GraA (untagged) in GraT2A2 complex (Pseudomonas putida;Pseudomonas putida, UniProt Q88MI5;Q88MI6 1-92;1-99, |); test: ITC; macroscopic; ITC: 50 mM Tris pH 8.0, 250 mM NaCl, 2 mM β-mercaptoethanol (TCEP in purification for ITC), 25 °C; EMSA: 5 µM DNA, 30 min at room temperature, 6% native PAGE in TBE on ice; conditions: protein: recombinant;recombinant; tags: N-terminal His6;none; chain copies: 2;2
T3 sequence 1: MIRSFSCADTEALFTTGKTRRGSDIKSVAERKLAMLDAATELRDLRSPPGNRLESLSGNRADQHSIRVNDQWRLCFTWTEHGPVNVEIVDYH
T3 sequence 2: T1 sequence

Molecule “AAATTAACGAATAACGTTATTCGTTAATTT (double strand) [Left side mirrored]” has a Ka [1] of 5.2e+12 M^-2.

Work on “AGCTGAATGCTTAACGTTAAGCATTCAGCT (double strand) [Right side mirrored]” yielded a Ka [1] of 3.5e+12 M^-2.

“N-terminally His-tagged antitoxin GraA (natural protein)” showed a stoichiometry N [2] of 2, a stoichiometry N [3] of 2 and a stoichiometry N [4] of 2.

For “untagged antitoxin GraA co-expressed with His-tagged GraT (natural protein)”, the stoichiometry N [5] was 2.

B1: Variant 5 (dsDNA)
DNA 1: AAATTAACGCCGAACGTTAAGCATTCAGC
DNA 2: GCTGAATGCTTAACGTTCGGCGTTAATTT
Molecule B1 has a Ka [6] of 7.1e+12 M^-2.

B2: Upstream half (dsDNA)
DNA 1: AAATTAACGAATAACGTTAAG
DNA 2: CTTAACGTTATTCGTTAATTT
B2: no binding [7].

B3: graTA operator wild type 33 bp (dsDNA)
DNA 1: AAATTAACGAATAACGTTAAGCATTCAGCTCAT
DNA 2: ATGAGCTGAATGCTTAACGTTATTCGTTAATTT
B3 was tested, and the Ka [8] was 3e+13 M^-2 and the Ka [9] was < 1e+07 M^-2.

B4: Variant 6 (dsDNA)
DNA 1: AAATTAACGAATAACGTTAAGCCGGCAGCT
DNA 2: AGCTGCCGGCTTAACGTTATTCGTTAATTT
For B4, the Ka [6] was 1.5e+13 M^-2.

B5: Variant 3 (dsDNA)
DNA 1: AAATTAACGAATAGTGTTAAGCATTCAGCT
DNA 2: AGCTGAATGCTTAACACTATTCGTTAATTT
In the case of B5, the Ka [6] is reported as 3.9e+11 M^-2.

B6: Central palindrome (dsDNA)
DNA 1: GAATAACGTTAAG
DNA 2: CTTAACGTTATTC
B6: no binding [7].

B7: Variant 4 (dsDNA)
DNA 1: AAAGGCACGAATAACGTTAAGCATTCAGCT
DNA 2: AGCTGAATGCTTAACGTTATTCGTGCCTTT
With B7 the Ka [6] was 4.3e+13 M^-2.

B8: Variant 1 (dsDNA)
DNA 1: AAATTAACGAATAACGGGCCGCATTCAGCT
DNA 2: AGCTGAATGCGGCCCGTTATTCGTTAATTT
In the case of B8, the Ka [6] is reported as 2.1e+09 M^-2.

B9: Downstream half (dsDNA)
DNA 1: AATAACGTTAAGCATTCAGCT
DNA 2: AGCTGAATGCTTAACGTTATT
B9: no binding [7].

B10: Variant 2 (dsDNA)
DNA 1: B4 DNA 1 with T12G, A13C, A14C
DNA 2: B4 DNA 2 with T17G, T18G, A19C
For B10, the Ka [6] was 4.7e+11 M^-2.

Source: article PMC6393540, “A dual role in regulation and toxicity for the disordered N-terminus of the toxin GraT”
